Measurements taken from US20040175720A1 (NEW YORK UNIVERSITY, published 2004).

T1: B42-NIF-1 (full-length), B42 activation domain fusion expressed from pJG4-5 in yeast (human, UniProt Q9H4Z2 1-1342)
T1 construct: also called NIF-1 expressed as a B42-fusion
T1 sequence: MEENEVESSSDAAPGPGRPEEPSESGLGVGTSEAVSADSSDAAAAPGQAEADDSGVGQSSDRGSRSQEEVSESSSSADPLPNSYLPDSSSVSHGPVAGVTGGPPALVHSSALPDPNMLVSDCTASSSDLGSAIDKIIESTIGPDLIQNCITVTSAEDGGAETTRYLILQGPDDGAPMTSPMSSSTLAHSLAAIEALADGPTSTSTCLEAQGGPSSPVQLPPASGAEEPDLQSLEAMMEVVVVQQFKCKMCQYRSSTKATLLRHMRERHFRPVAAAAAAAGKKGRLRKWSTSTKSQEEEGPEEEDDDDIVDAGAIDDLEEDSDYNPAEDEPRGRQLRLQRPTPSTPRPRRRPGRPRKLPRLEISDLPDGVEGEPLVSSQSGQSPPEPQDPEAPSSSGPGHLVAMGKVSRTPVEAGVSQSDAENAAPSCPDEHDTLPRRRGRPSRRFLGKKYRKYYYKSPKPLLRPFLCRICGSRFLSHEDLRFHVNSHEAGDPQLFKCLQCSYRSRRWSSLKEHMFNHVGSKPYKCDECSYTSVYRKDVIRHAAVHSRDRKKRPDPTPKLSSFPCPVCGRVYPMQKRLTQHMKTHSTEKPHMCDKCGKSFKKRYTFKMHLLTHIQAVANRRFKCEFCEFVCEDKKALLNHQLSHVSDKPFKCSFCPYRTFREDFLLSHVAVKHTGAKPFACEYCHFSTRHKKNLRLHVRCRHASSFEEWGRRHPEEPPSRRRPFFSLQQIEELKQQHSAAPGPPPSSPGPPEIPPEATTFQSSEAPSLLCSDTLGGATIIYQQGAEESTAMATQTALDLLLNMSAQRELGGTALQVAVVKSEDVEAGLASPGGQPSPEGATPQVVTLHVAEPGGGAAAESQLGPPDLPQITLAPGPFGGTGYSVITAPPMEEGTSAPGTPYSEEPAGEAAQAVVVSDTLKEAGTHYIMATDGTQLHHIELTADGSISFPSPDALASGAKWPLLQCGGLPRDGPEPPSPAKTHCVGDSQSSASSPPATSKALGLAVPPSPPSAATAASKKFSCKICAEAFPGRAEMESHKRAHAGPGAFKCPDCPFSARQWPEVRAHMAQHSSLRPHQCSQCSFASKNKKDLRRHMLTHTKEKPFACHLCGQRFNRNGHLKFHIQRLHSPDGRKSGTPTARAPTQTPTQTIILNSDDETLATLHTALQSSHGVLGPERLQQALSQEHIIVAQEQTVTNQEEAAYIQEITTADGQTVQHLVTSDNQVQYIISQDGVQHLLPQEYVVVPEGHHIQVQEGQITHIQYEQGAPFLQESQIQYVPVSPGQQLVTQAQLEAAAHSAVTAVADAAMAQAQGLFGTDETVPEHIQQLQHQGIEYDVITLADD

B1: NIF-1 (NRC Interacting Factor-1), full-length human, untagged (other)
chain: T1 sequence
modifications: ^35S-L-methionine label in the in vitro binding assay
B2: LexA-hRXRα LBD (LexA fusion of the ligand binding domain of hRXRα) (receptor, UniProt P0A7C2 1-202, looked up)
chain: MKALTARQQEVFDLIRDHISQTGMPPTRAEIAQRLGFRSPNAAEEHLKALARKGVIEIVSGASRGIRLLQEEEEGLPLVGRVAAGEPLLAQQHIEGHYQVDPSLFKPNADFLLRVSGMSMKDIGIMDGDLLAVHKTQDVRNGQVVVARIDDEVTVKRLKKQGNKVELLPENSEFKPIVVDLRQQSFTIEGLAVGVIRNGDWLMGMKREAVQEERQRGKDRNENEVESTSSANEDMPVERILEAELAVEPKTETYVEANMGLNPSSPNDPVTNICQAADKQLFTLVEWAKRIPHFSELPLDDQVILLRAGWNELLIASFSHRSIAVKDGILLATGLHVHRNSAHSAGVGAIFDRVLTELVSKMRDMQMDKTELGCLRAIVLFNPDSKGLSNPAEVEALREKVYASLEAYCKHKYPEQPGRFAKLLLRLPALRSIGLKCLEHLFFFKLIGDTPIDTFLMEMLEAPHQMT
notes: domain: LexA DBD;domain: LBD
B3: LexA-hGR LBD (LexA fusion of the ligand binding domain of hGR) (receptor, UniProt P0A7C2 1-202, looked up)
chain: MKALTARQQEVFDLIRDHISQTGMPPTRAEIAQRLGFRSPNAAEEHLKALARKGVIEIVSGASRGIRLLQEEEEGLPLVGRVAAGEPLLAQQHIEGHYQVDPSLFKPNADFLLRVSGMSMKDIGIMDGDLLAVHKTQDVRNGQVVVARIDDEVTVKRLKKQGNKVELLPENSEFKPIVVDLRQQSFTIEGLAVGVIRNGDWLGMNLEARKTKKKIKGIQQATTGVSQETSENPGNKTIVPATLPQLTPTLVSLLEVIEPEVLYAGYDSSVPDSTWRIMTTLNMLGGRQVIAAVKWAKAIPGFRNLHLDDQMTLLQYSWMFLMAFALGWRSYRQSSANLLCFAPDLIINEQRMTLPCMYDQCKHMLYVSSELHRLQVSYEEYLCMKTLLLLSSVPKDGLKSQELFDEIRMTYIKELGKAIVKREGNSSQNWQRFYQLTKLLDSMHEVVENLLNYCFQTFLDKTMSIEFPEMLAEIITNQIPKYSNGNIKKLLFHQK
notes: domain: LexA DBD;domain: LBD
B4: LexA-human ERα-LBD (LexA fusion of the ligand binding domain of hERα) (receptor, UniProt P0A7C2 1-202, looked up)
chain: MKALTARQQEVFDLIRDHISQTGMPPTRAEIAQRLGFRSPNAAEEHLKALARKGVIEIVSGASRGIRLLQEEEEGLPLVGRVAAGEPLLAQQHIEGHYQVDPSLFKPNADFLLRVSGMSMKDIGIMDGDLLAVHKTQDVRNGQVVVARIDDEVTVKRLKKQGNKVELLPENSEFKPIVVDLRQQSFTIEGLAVGVIRNGDWLSAGDMRAANLWPSPLMIKRSKKNSLALSLTADQMVSALLDAEPPILYSEYDPTRPFSEASMMGLLTNLADRELVHMINWAKRVPGFVDLTLHDQVHLLECAWLEILMIGLVWRSMEHPGKLLFAPNLLLDRNQGKCVEGMVEIFDMLLATSSRFRMMNLQGEEFVCLKSIILLNSGVYTFLSSTLKSLEEKDHIHRVLDKITDTLIHLMAKAGLTLQQQHQRLAQLLLILSHIRHMSNKGMEHLYSMKCKNVVPLYDLLLEMLDAHRLHAPTSRGGASVEETDQSHLATAGSTSSHSLQKYYITGEAEGFPATV
notes: domain: LexA DBD;domain: LBD; also called hERa; ERa
B5: LexA-hRARα LBD (LexA fusion of the ligand binding domain of hRARα) (receptor, UniProt P0A7C2 1-202, looked up)
chain: MKALTARQQEVFDLIRDHISQTGMPPTRAEIAQRLGFRSPNAAEEHLKALARKGVIEIVSGASRGIRLLQEEEEGLPLVGRVAAGEPLLAQQHIEGHYQVDPSLFKPNADFLLRVSGMSMKDIGIMDGDLLAVHKTQDVRNGQVVVARIDDEVTVKRLKKQGNKVELLPENSEFKPIVVDLRQQSFTIEGLAVGVIRNGDWLSKESVRNDRNKKKKEVPKPECSESYTLTPEVGELIEKVRKAHQETFPALCQLGKYTTNNSSEQRVSLDIDLWDKFSELSTKCIIKTVEFAKQLPGFTTLTIADQITLLKAACLDILILRICTRYTPEQDTMTFSDGLTLNRTQMHNAGFGPLTDLVFAFANQLLPLEMDDAETGLLSAICLICGDRQDLEQPDRVDMLQEPLLEALKVYVRKRRPSRPHMFPKMLMKITDLRSISAKGAERVITLKMEIPGSMPPLIQEMLENSEGLDTLSGQPGGGGRDGGGLAPPPGSCSPSLSPSSNRSSPATHSP
notes: domain: LexA DBD;domain: LBD
B6: LexA-cTRα LBD (LexA fusion of the ligand binding domain of cTRα) (receptor, UniProt P0A7C2 1-202, looked up)
chain: MKALTARQQEVFDLIRDHISQTGMPPTRAEIAQRLGFRSPNAAEEHLKALARKGVIEIVSGASRGIRLLQEEEEGLPLVGRVAAGEPLLAQQHIEGHYQVDPSLFKPNADFLLRVSGMSMKDIGIMDGDLLAVHKTQDVRNGQVVVARIDDEVTVKRLKKQGNKVELLPENSEFKPIVVDLRQQSFTIEGLAVGVIRNGDWLMDLVLDDSKRVAKRKLIEENRERRRKEEMIKSLQHRPSPSAEEWELIHVVTEAHRSTNAQGSHWKQKRKFLPEDIGQSPMASMPDGDKVDLEAFSEFTKIITPAITRVVDFAKKLPMFSELPCEDQIILLKGCCMEIMSLRAAVRYDPESETLTLSGEMAVKREQLKNGGLGVVSDAIFDLGKSLSAFNLDDTEVALLQAVLLMSSDRTGLICVDKIEKCQETYLLAFEHYINYRKHNIPHFWPKLLMKVTDLRMIGACHASRFLHMKVECPTELFPPLFLEVFEDQEV
notes: domain: LexA DBD;domain: LBD; also called cTRa
B7: LexA-hPPARα LBD (LexA fusion of the ligand binding domain of hPPARα) (receptor, UniProt P0A7C2 1-202, looked up)
chain: MKALTARQQEVFDLIRDHISQTGMPPTRAEIAQRLGFRSPNAAEEHLKALARKGVIEIVSGASRGIRLLQEEEEGLPLVGRVAAGEPLLAQQHIEGHYQVDPSLFKPNADFLLRVSGMSMKDIGIMDGDLLAVHKTQDVRNGQVVVARIDDEVTVKRLKKQGNKVELLPENSEFKPIVVDLRQQSFTIEGLAVGVIRNGDWLSHNAIRFGRMPRSEKAKLKAEILTCEHDIEDSETADLKSLAKRIYEAYLKNFNMNKVKARVILSGKASNNPPFVIHDMETLCMAEKTLVAKLVANGIQNKEAEVRIFHCCQCTSVETVTELTEFAKAIPGFANLDLNDQVTLLKYGVYEAIFAMLSSVMNKDGMLVAYGNGFITREFLKSLRKPFCDIMEPKFDFAMKFNALELDDSDISLFVAAIICCGDRPGLLNVGHIEKMQEGIVHVLRLHLQSNHPDDIFLFPKLLQKMADLRQLVTEHAQLVQIIKKTESDAALHPLLQEIYRDMY
notes: domain: LexA DBD;domain: LBD

What follows are binders tested against Human NRC expressed from pEX-NRC in HeLa cells (human, UniProt Q14686 1-2063) (assay: cell-based or functional assay).
Human NRC expressed from pEX-NRC in HeLa cells, sequence (Q14686 whole entry): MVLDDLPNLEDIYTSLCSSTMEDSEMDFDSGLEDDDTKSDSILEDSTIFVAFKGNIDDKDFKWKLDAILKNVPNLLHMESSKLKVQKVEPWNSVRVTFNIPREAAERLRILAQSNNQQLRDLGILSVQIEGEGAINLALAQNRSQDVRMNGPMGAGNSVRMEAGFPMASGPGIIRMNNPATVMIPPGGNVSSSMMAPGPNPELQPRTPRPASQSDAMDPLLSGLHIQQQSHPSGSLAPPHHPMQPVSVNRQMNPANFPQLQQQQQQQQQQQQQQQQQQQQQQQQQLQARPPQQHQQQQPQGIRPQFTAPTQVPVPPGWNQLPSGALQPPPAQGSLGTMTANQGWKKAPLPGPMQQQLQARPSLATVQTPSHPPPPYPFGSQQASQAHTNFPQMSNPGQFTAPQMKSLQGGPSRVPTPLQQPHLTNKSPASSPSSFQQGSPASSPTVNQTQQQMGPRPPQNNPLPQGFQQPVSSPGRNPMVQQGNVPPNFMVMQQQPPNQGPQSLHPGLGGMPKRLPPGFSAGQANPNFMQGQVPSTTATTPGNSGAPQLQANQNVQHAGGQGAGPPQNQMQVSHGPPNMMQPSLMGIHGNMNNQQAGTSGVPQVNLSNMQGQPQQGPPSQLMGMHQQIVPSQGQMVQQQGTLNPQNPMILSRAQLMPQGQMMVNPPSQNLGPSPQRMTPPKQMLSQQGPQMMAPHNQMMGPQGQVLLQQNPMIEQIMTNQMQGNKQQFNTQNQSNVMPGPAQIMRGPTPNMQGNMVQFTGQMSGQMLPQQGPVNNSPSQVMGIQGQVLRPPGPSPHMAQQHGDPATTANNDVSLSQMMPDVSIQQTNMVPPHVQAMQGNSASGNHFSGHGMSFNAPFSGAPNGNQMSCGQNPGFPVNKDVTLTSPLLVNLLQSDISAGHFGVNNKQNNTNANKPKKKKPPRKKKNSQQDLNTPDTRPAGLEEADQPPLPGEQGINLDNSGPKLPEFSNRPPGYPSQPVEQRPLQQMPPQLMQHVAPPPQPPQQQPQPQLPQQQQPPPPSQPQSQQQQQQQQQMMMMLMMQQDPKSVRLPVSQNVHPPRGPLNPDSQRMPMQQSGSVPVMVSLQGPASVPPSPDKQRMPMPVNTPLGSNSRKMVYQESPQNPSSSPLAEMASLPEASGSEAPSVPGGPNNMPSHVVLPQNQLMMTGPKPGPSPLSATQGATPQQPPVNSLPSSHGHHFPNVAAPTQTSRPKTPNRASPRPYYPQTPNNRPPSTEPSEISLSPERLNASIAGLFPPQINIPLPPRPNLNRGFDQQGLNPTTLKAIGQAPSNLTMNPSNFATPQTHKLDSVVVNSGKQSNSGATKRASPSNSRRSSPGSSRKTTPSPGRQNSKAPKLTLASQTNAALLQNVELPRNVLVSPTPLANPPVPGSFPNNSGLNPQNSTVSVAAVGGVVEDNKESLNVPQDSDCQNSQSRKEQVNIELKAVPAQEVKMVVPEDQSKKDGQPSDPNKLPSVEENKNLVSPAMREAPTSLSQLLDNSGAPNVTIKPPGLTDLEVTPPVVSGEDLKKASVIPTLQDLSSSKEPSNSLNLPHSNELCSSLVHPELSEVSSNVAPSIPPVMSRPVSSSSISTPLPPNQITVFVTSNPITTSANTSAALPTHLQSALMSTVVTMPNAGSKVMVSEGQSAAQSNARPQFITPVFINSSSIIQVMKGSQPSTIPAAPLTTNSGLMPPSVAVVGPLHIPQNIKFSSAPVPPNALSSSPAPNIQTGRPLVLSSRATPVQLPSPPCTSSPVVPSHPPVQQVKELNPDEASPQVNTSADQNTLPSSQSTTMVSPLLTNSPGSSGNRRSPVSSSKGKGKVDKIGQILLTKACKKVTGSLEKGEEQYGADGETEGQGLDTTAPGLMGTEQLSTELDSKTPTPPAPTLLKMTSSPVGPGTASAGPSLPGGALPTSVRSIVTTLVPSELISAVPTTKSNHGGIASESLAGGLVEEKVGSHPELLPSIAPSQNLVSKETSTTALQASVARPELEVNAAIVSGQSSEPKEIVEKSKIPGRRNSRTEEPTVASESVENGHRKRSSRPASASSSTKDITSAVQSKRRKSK

Binder | activity of the -73 collagenase-CAT reporter gene in HeLa cells (fold increase) [fold]
B1 | 12

The binders below were run against T1, B42-NIF-1 (full-length), B42 activation … (assay: yeast two-hybrid, B42-NIF-1 (full-length) against LexA-LBD, β-galactosidase).
Experimental: To examine for this possibility, the interaction of B42-NIF-1 (full-length), conditionally expressed from pJG4-5, was studied with LexA fusions of nuclear receptor LBDs (cTRα, ERa, RXRα, GR, RARα, and PPARα) in yeast, as shown in FIG. 7. In addition, a LexA-fusion of full-length cTRα was also tested against B42-NIF-1 (full-length) and gave similar results as with the cTRα LBD. […] To document that the LexA-LBD fusions were expressed and responded to ligand in yeast, similar studies were carried out with B42-NRC.

Binder | binding result
B2 | no binding
B3 | no binding
B4 | no binding
B5 | no binding
B6 | no binding
B7 | no binding
